Here are results for 1 molecule from PMC6321783 (Cellular signalling, 2018).

For this assay, the target named is T1, HA-ASK1 (Apoptosis Signal-regulating Kinase 1) (UniProt Q99683 1-1374).
T1 sequence (looked up): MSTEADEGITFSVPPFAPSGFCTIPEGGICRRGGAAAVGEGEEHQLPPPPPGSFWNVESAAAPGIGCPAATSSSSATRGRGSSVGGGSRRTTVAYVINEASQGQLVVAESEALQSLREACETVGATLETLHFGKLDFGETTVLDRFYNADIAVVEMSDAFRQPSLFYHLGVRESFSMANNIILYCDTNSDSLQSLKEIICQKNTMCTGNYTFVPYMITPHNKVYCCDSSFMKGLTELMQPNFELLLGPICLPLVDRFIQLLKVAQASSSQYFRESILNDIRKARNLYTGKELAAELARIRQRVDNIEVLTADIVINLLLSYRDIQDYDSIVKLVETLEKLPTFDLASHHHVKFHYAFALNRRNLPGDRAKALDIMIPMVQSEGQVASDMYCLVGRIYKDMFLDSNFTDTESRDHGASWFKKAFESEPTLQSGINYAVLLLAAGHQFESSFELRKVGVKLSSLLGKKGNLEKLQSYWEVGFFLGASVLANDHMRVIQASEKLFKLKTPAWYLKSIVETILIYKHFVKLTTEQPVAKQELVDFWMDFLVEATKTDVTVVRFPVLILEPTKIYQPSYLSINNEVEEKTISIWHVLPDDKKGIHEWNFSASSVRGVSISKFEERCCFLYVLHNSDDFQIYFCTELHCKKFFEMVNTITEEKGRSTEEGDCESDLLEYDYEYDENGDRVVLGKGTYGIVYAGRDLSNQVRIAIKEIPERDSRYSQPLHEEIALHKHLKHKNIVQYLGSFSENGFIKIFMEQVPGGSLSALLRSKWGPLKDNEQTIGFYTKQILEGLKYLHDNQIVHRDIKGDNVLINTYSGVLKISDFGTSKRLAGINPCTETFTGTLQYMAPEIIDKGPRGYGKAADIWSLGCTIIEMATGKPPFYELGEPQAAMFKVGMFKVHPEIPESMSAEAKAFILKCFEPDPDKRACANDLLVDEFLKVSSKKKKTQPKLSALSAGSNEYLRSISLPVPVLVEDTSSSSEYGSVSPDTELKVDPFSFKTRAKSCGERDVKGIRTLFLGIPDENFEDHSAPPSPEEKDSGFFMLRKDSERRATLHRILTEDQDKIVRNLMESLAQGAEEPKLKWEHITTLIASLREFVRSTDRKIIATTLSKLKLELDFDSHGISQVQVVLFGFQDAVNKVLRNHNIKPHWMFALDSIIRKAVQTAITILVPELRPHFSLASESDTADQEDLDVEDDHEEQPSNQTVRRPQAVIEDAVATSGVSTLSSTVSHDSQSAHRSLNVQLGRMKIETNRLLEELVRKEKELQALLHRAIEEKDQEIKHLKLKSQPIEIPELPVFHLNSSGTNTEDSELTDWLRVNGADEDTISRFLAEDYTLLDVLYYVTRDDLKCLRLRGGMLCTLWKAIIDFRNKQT
The assay is described as follows: co-IP.

B1: arrestin-3-(1–366) fragment (expressed in COS7 cells) (domain or fragment, bovine, UniProt P32120-2 1-366, looked up)
chain: MGEKPGTRVFKKSSPNCKLTVYLGKRDFVDHLDKVDPVDGVVLVDPDYLKDRKVFVTLTCAFRYGREDLDVLGLSFRKDLFIANYQAFPPTPNPPRPPTRLQERLLRKLGQHAHPFFFTIPQNLPCSVTLQPGPEDTGKACGVDFEIRAFCAKSLEEKSHKRNSVRLVIRKVQFAPEKPGPQPSAETTRHFLMSDRSLHLEASLDKELYYHGEPLNVNVHVTNNSTKTVKKIKVSVRQYADICLFSTAQYKCPVAQVEQDDQVSPSSTFCKVYTITPLLSNNREKRGLALDGKLKHEDTNLASSTIVKEGANKEVLGILVSYRVKVKLVVSRGGDVSVELPFVLMHPKPHDHIALPRPQSAAPETD
In the case of B1, the “binding relative to WT arrestin-3” value was ~0.33 of WT.
